Reference: article PMC8891371

What was measured:
[1] = target: axolotl Melanocortin-3 receptor, N-terminally 3×HA tagged (Ambystoma mexicanum (Mexican axolotl))
[2] = target: axolotl Melanocortin-4 receptor, N-terminally 3×HA tagged (Ambystoma mexicanum (Mexican axolotl))

| cAMP luminescent assay (pCRE-Luc, Dual-Glo) in HEK293T, logEC50; MC3R:MRAP2 plasmid ratio 1:0 [1] [log M] | cAMP luminescent assay (pCRE-Luc, Dual-Glo) in HEK293T, logEC50; MC3R:MRAP2 plasmid ratio 1:1 [1] [log M] | cAMP luminescent assay (pCRE-Luc, Dual-Glo) in HEK293T, logEC50; MC3R:MRAP2 plasmid ratio 1:3 [1] [log M] | cAMP luminescent assay (pCRE-Luc, Dual-Glo) in HEK293T, logEC50; MC3R:MRAP2 plasmid ratio 1:6 [1] [log M] | cAMP luminescent assay (pCRE-Luc, Dual-Glo) in HEK293T, logEC50; MC4R:MRAP2 plasmid ratio 1:0 [2] [log M] | cAMP luminescent assay (pCRE-Luc, Dual-Glo) in HEK293T, logEC50; MC4R:MRAP2 plasmid ratio 1:1 [2] [log M] | cAMP luminescent assay (pCRE-Luc, Dual-Glo) in HEK293T, logEC50; MC4R:MRAP2 plasmid ratio 1:3 [2] [log M] | cAMP luminescent assay (pCRE-Luc, Dual-Glo) in HEK293T, logEC50; MC4R:MRAP2 plasmid ratio 1:6 [2] [log M] | Substance |
| --- | --- | --- | --- | --- | --- | --- | --- | --- |
| -9.95 | -9.29 | -9.04 | -8.98 | -9.84 | -10 | -9.37 | -9.06 | Human α-melanocyte stimulating hormone (peptide) |
| -9.51 | -9.47 | -9.4 | -9.55 | -9.62 | -10.1 | -10.1 | -10.3 | human adrenocorticotropin ACTH (1–24) (peptide) |
